Results: paper PMC2972695

Assays:
GST-SHOX2 [1] = target: T1, GST-SHOX2 (UniProt O60902 1-331); test: EMSA
GST-SHOX2 [2] = target: T1, GST-SHOX2; test: competition

T1 sequence (O60902 whole entry): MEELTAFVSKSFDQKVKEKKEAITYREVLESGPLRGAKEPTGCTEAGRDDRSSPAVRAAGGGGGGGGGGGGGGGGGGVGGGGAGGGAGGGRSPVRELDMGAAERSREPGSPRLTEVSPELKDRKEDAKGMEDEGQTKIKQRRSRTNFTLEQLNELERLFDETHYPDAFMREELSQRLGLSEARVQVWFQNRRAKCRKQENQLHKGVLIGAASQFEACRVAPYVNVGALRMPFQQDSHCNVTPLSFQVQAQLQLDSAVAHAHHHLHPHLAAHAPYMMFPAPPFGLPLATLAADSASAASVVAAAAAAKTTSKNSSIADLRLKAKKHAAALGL

| Binder | binding result (GST-SHOX2 [1]) | binding result (GST-SHOX2 [2]) |
| --- | --- | --- |
| BMP4 EMSA oligonucleotide (34 bp conserved promoter motif) (dsDNA) DNA 1: GGGTCTCATTATATTCAAATATTCCTTTTAGGAGCCA DNA 2: GGGTGGCTCCTAAAAGGAATATTTGAATATAATGAGA | binds |  |
| BMP4 oligonucleotide, unlabelled homologous competitor (dsDNA) DNA 1: GGGTCTCATTATATTCAAATATTCCTTTTAGGAGCCA DNA 2: GGGTGGCTCCTAAAAGGAATATTTGAATATAATGAGA |  | binds |
